According to the supplement of paper PMC12764529:
± gives the half width of the 95% confidence interval.

assay: folding stability dG unfold (combined trypsin and chymotrypsin); higher = more stable
Summary of the method: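 Bayesian fitting of sequencing counts gave K50 for each design. Unfolding free energy followed by setting this against a sequence-predicted unfolded-state K50 and a shared folded-state K50, either per protease or with trypsin and chymotrypsin combined. The designs, under 80 residues and lacking cysteine, were digested in a PA-tagged cDNA display format at 11 threefold-diluted protease concentrations and without protease, and only those with AlphaFold2 dimer inter-PAE above 15 were kept.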

| Sequence | folding stability dG unfold |
| --- | --- |
| SAGGSSSLLEGLPGVVEVTVTTSLSVRPLSPEAARANPGQADRTVPLPRTTVTVTVEFPVSPAGILSAGGSA [r2_404_JUSTAS] | 0.94 ± 0.15 kcal/mol |
| SAGGSAGGGMMLTLSSQTTQTSYDPSGLSTTLSLTTNPLGGTTVVTTTTVPGTGEVSVTTTPSSSAGGSAGG [r6_977_JUSTAS] | 1.04 ± 0.045 kcal/mol |
| SAGGSAGGKNNETRRDPNNGNTYTRTGGKWEMEPVPPPIEIVPWPIWDPNGQDLELMWRVSINLSAGGSAGG [r6_313_TrROS] | 0.838 ± 0.33 kcal/mol |
| SAGGKEVYKVEIEVRLVKVPPGATVTLEEENGELTLTVTAPPGEEVLVIRIKVEKVKLPKPEKKKKKKSAGG [r13_804_TrROS_Hall] | 2.79 ± 0.45 kcal/mol |
| SAGGSAGGSAGPVRTIEILFPFDPGESLEFEIRIPGNGRKIKVSIEPYPNGWMRIKITVYSAGGSAGGSAGG [r17_131_TrROS] | 5.69 ± 0.21 kcal/mol |
| SAGGSAGGSAGGMEIEFEKAKFEIEEIDPEKGKIKVKFPGLEKEFEIEFDKKGKIVKISGSAGGSAGGSAGG [r7_553_TrMRF] | 0.612 ± 0.12 kcal/mol |
| SAGGSAGGSAGGMIIEKKTVEKLPDGTVKVTVSIITVNDDGKTETIKTETKIIPLSELLGSAGGSAGGSAGG [r7_521_JUSTAS] | 2.18 ± 0.11 kcal/mol |
| SAGDLLKNLPPEIVEVEEVKTLPDGTKYFLVKVKKDGKERVFVIELDKNGKIVKIEEMSKEEAEKLLKKSAG [r5_73_TrROS_Hall] | 3.32 ± 0.17 kcal/mol |
| SAMTPEELAARLAEALRREAEEAGLEIVDVRVEYDEETDTVTVEVVVRNKETGELVTRRVEIRSLEELLSAG [r14_409_TrROS_Hall] | 3.98 ± 0.1 kcal/mol |
| SAGGSAGGPETIPLRFGEEEVLLVLSPEDPDRFLAYFPAEGRVYLYRLLPEGLEFLREVPAEELSAGGSAGG [r6_915_TrMRF] | 2.07 ± 0.1 kcal/mol |
| SAGGMVYVVRLRDEDGTEYTALVEEFDGIYRVRLFDEDGELVEEREFESVEEAIDALLAEGYEVEVYPSAGG [r13_315_TrMRF] | 4.66 ± 0.07 kcal/mol |
| SAGGSAKKPKIKIKIKITNENGEKIEIEIEAETEEEALEAAKKLAEELAKKPNIKEVKIEITEIEPSAGGSA [r15_698_TrROS_Hall] | 2.07 ± 0.096 kcal/mol |
| SAGGSAGGSAGGPEKGKWKLVLVTMTIPLPPGASIPIPNGVWIYYTDGKIEIWFLMWVPDSAGGSAGGSAGG [r7_506_TrROS] | 4.8 ± 0.21 kcal/mol |
| SAGGSAGKITIPARVKITLTPPNGPTVTFDAIITRVEDNSIELILGNVPITIPPNAKNVTITSVEGSAGGSA [r15_510_TrMRF] | 1.49 ± 0.052 kcal/mol |
| PPGYRPIEIEIPMKVESIEEAKEEVLNFAHELAEAFPNITDINVEVDKIDPNNGYIFAKITIYVGDKTITIS [r1_52_TrROS] | 1.8 ± 0.43 kcal/mol |
| SAGGSAGGSAGDFDIKTVKNPPGTLMIVMPDNGWIQQIKFDPKNGKFKIDEIKWIPLDDISAGGSAGGSAGG [r11_352_TrROS] | 0.585 ± 0.11 kcal/mol |

| Sequence | folding stability dG unfold |
| --- | --- |
| SAGGSAMKIELENAKILDIKPTPDGKKVIFIELPSGKIIAVYEDNKVAVRSKKDPSVKPEDADPVFSAGGSA [r15_692_TrMRF] | 0.892 ± 0.11 kcal/mol |
| SAGGSLRGVLFDPEGGRVYVLEYDPALGSFRVRPFPVPPVLPISREAAAEILRRELGLPREVVERLLASAGG [r13_824_TrMRF] | 3.15 ± 0.093 kcal/mol |
| SAGGSAGSLSPIGEHPYTLPDGSRITVPIYRDPATGEIVVEVETETEEEDISEKAEEYAEKVREALSAGGSA [r15_529_JUSTAS] | -0.25 ± 0.14 kcal/mol |
| SAGGSPDPNQKPVTVRVEIMIMRPDPNGKWEMRPIEFEMTIGDVEEFLEELEKEPGYMIMVDIEIYSAGGSA [r2_270_TrROS] | 3.65 ± 0.28 kcal/mol |
| SAGGSAGGEPPPVVITVTVRNPATGETVKATAVLNPDGTLQVTVTRPDGSKQTFTATISAEALKSAGGSAGG [r6_588_TrROS_Hall] | 3.63 ± 0.34 kcal/mol |
| SAGGSMTFEIVEVTYDEETDEVTVRVRLPNGEVVTLSAEEIEKAIKEGKTITFTLENGEKLEIEVLSAGGSA [r2_301_TrROS_Hall] | 2.27 ± 0.084 kcal/mol |
| SAGPAVVIPLPLDPEKWSPEEILEAAIKLAEEAYKAGLPGSVTLLVPVPEKPLLITIDPKTGKITVDPSAGG [r19_204_TrMRF] | 1.63 ± 0.072 kcal/mol |
| SAGGSMRITKIEIEPNPNGDYKITITMTENGHITVEVMNPNGKPKEVEVNMPNGDPEEVVKEAIKASAGGSA [r2_298_TrROS] | 1.63 ± 0.083 kcal/mol |
| SAGGIKEAFEAGVEVKDVEVPVLFPDGSEAEVVEVDPVDDGVRVVLRNPVTGELFEREIPPELIEPRPSAGG [r13_340_TrMRF] | 0.484 ± 0.07 kcal/mol |
| SAGGGLIRDAIENNPELRELLKEGYVLYVTYPDGKSGVIEINNASASEIDDAIRAHFPGEVELEFGSSAGGS [r16_655_TrMRF] | 0.752 ± 0.046 kcal/mol |
| SAGGSAGGSAPETSLTSTFEFRFEVDGELYAVRIERRVLLSADGDLRVETRIEIIPIPPDVPASAGGSAGGS [r12_927_TrMRF] | 4.79 ± 0.11 kcal/mol |
| SAGGSAGGSAKTIKVLVRDKETGEVFEVEAEIVEFDEETGELLIKVRLPNGKTLTLSAEELLSAGGSAGGSA [r18_334_TrROS_Hall] | 3.71 ± 0.21 kcal/mol |
| SAGGSAGGSAGGNIEIFYFPDGYVVITIWDPDEGWRIVITAKIDPGDGKIKEMDIMPVPSAGGSAGGSAGGS [r10_613_TrROS] | 2.85 ± 0.19 kcal/mol |
| SAGGSAGGSAGSTITIRINGKTYTIEVDESEEEALERIRELARALLPEGEVEVTVERREPSAGGSAGGSAGG [r11_1028_TrROS_Hall] | 2.98 ± 0.079 kcal/mol |
| SAGGSAGGSAGGLGPDEKPKVKYLALIYDPETGEVTVVPADKLDKVLKETDASVSLFPVSAGGSAGGSAGGS [r10_1121_TrMRF] | 0.565 ± 0.2 kcal/mol |
